Measured values from the supplement of paper PMC12764529.
± gives the half width of the 95% confidence interval.

Assay: folding stability dG unfold from chymotrypsin proteolysis; higher = more stable
How it was run: (§1)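 Unfolding free energy was derived, per protease or combined, against a sequence-predicted unfolded-state K50 and a shared folded-state K50, starting from K50 inferred by Bayesian fitting of sequencing counts. Digestion with trypsin and chymotrypsin was carried out on designed mini-proteins under 80 residues without cysteine in a PA-tagged cDNA display construct. Only designs with AlphaFold2 dimer inter-PAE above 15 were kept.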

| Sequence | folding stability dG unfold |
| --- | --- |
| SAGSATVTYDPDTNTVTVTLEGPDTTFTISFPNGEKLEVKATVKPLPDGSYKVLLEVYYPDGSKETFELSAG [r14_675_TrMRF] | 21.6 ± 1.26 kJ/mol |
| SAGNVVETEEKPVESPLPRKATLTTLTSPTPGVTFRVFTSPENVTTVEVETDGRTETLEPAEAEALLASSAG [r5_157_JUSTAS] | -4.16 ± 1.26 kJ/mol |
| SNKKWRTIELDFWFRTPEQAREWANNLARRLPPDNIDSISVEVEPFPVRKNGEPVGPVYRFKLTIMVRPESA [r9_605_TrROS] | 11.8 ± 0.134 kJ/mol |
| SAGGSAGGKAEKITLEIPNTGKKVEIIKPENKAIITVYDKNGKPIKTIVVPPNFPGIEDAVKADSAGGSAGG [r6_424_TrMRF] | 3.24 ± 0.255 kJ/mol |
| SAGGSAGGSAGGPFPFKIDSVEWETTDNKRYYEIKLEFPNGNPVTIHMPPNNPDDVKDAISAGGSAGGSAGG [r7_365_TrROS] | -0.035 ± 1.05 kJ/mol |
| SAGGSAGGSAGIVIKAKSPDEAVEALKKLFEKTGKADINIKPVKVLPDGNVLVEAGIDNKSAGGSAGGSAGG [r17_430_TrMRF] | -5.97 ± 2.55 kJ/mol |
| SMVYVFEVPEGDPEKAEELIRAKLEEEFGYKVESVATPGGGGARVVLVVDPVEDKAYAEVIPFAPDGSPASA [r9_173_TrMRF] | 4.8 ± 0.837 kJ/mol |
| SAGGSAGGSAGGMLTIVEVLSKDPEKPVYTVKVKFPDGSEKTLEVPPELLSNPEKEIVLESAGGSAGGSAGG [r7_117_JUSTAS] | 6.03 ± 0.293 kJ/mol |
| SAGAGKTPDGKEYIIPFTFKNENGETTPEEIEEKIKEFTAKHPEVKIKEIKAIKEGDSVKVLVVVEKPASAG [r5_688_TrMRF] | 11.6 ± 0.222 kJ/mol |
| SAGGSAGGSKKKKIEIIIVMSKEEAEKIAEELKKKYNIKEIKIKVIPLKKNSPKVKELLKKLKSAGGSAGGS [r12_649_TrROS_Hall] | 8.04 ± 0.502 kJ/mol |
| SAGGSSPPGVKVEVTVEVTYIPSKGGYKLTFYRPGGEKVDTKELEKDKLEEAKEELKAKGFDVVKIKKSAGG [r13_765_JUSTAS] | 3.69 ± 0.753 kJ/mol |
| SAGGEVELKIKIEIRVELNEDGELKVEIKIEIELRPKPEPELTEEERLAEELRKKYPGLSKEELEALLSAGG [r13_136_TrROS_Hall] | 6.81 ± 0.544 kJ/mol |
| SAGGSAGGSAGGSKDERTLTLRLRVTTPIYGTDADGNPLEPIEVTKEYELTVTVPADLLSAGGSAGGSAGGS [r4_425_TrMRF] | 11.3 ± 0.414 kJ/mol |
| SKKIIIKITITDPKNKKKIKITEIIFDKKTKKIIIKIEVENVKNKEKLKSKEDVLEAIKKLLEKLGFKPISA [r9_258_TrROS_Hall] | 10.3 ± 1.46 kJ/mol |
| SAGGKVYEFEIEVELLDPETGKPKKIKLKVPVFVDPKTGKVTKKVEAEPEPNVPKEEAEKIAKEIIEAESAG [r14_152_TrMRF] | 7.17 ± 0.305 kJ/mol |
| SAVIPLEELARKVAEELGLEPVEVLEVIPEEGVVVMRFEGAVIVVKVDPETGEAEVEIVVFDPETGKPVSAG [r14_270_TrMRF] | 14 ± 0.264 kJ/mol |
| SMTLTIDLDPSVPYLVRIHFVNEDGEPYEADALTTRTPDGTAFVDIALPDDSIPPGADIKILSVEVIPLDSA [r9_359_TrMRF] | 8.77 ± 0.226 kJ/mol |
| SAGGKVKIIVFNKKTGEKIEIDLSKLKPGDIIKLPNGYYKIIDKKTKKIKVIKAKSIEELKKAIKKLSSAGG [r13_962_TrROS_Hall] | 9.23 ± 0.711 kJ/mol |
| SAGGDKKWTAEFDVRKRDDTVEVTLTFTDPNGNETTETYTLTDDELAKLLAELPPEFKNVTRNEVLESAGGS [r16_298_JUSTAS] | 8.54 ± 0.46 kJ/mol |
| SAGMTVEELKAQPKNATVTSVSRDPSTGLYTVTIERPDSNGKWVTHTLTLTGPEAVAAAVAAGLPSLAASAG [r5_905_JUSTAS] | 10.3 ± 0.18 kJ/mol |
| SAGGSAGGMYTKTYNVPPDWKVTATATAPGGATVTDSSAPNGNFTLTFPASLADATTFTVTVTPSAGGSAGG [r6_237_JUSTAS] | 2.68 ± 0.544 kJ/mol |

Assay: folding stability dG unfold (combined trypsin and chymotrypsin); higher = more stable
How it was run: as §1

| Sequence | folding stability dG unfold |
| --- | --- |
| SAEELAEAEARRLGVDPAAVALEVTEEVDPLTGKPRKIVTVTIALPDRAYVITVDASDGTVLERRPLEAASA [r9_1219_JUSTAS] | 9.54 ± 0.339 kJ/mol |
| SAGGANIHVRMENPGDGKPMSFMIPVKEVREAKQEGKDEIKIPFGGGPMKVEIEPLPDGWVHIRMRMPSAGG [r13_171_TrROS] | 0.843 ± 1.09 kJ/mol |
| SAGGSDTVVLDFTVTVDGKPYTVRVTLTRNPPTGEITVPVEIESANPEDAVPAREVADALVERLLSSAGGSA [r2_259_TrMRF] | 6.52 ± 0.318 kJ/mol |
| SPKGIYIFMIQVKWKNPNGNEWTFPIMVPMDEMPEEELRDFIREFFPGFDDVDIEPQVMRIPPSPEAREKSA [r9_841_TrROS] | 10.7 ± 1.17 kJ/mol |
| SKIRIEVPGETIEITVPPGATVEFDEETGEITITLPDGSKRTIRLPPNAKIEVVDGEIRITIRLPPPPEPSA [r9_653_TrROS_Hall] | 12.3 ± 0.879 kJ/mol |
| SMGMTPEEYILELVREALAADPDAAVTIDHDDIVRNTPNPISKEEIEKLAKEKTGVEDLTVTETPPDVPPSA [r9_738_JUSTAS] | 1.11 ± 0.255 kJ/mol |
| SAGGSAGGSAGKKPPKVKVLELTFTLEDGYKVTVRLVENEDGELFLEIRIEPLPELPEEKSAGGSAGGSAGG [r11_998_TrROS_Hall] | 12.3 ± 0.544 kJ/mol |
| SAGGSAGGSPVVVIEVPAEDLSPEDIKALLAAAPDENAVIVITNPDGEKRTLVFTPDGRIEPLSAGGSAGGS [r12_1054_TrROS_Hall] | 2.48 ± 0.176 kJ/mol |
| SAGGSAGGSAGDPKKKPPKPILGFELAEFEITTEDGTKYKVKALIIYFPDTGTKVIFVLGSAGGSAGGSAGG [r11_1024_TrMRF] | 18.1 ± 0.753 kJ/mol |
| SAGGSAGALLVRFNDPELVRELIEALPFDALVERDPDDPNVLLVTLFTDGPLEEAVRAVREALGLESAGGSA [r15_118_TrMRF] | 12.5 ± 0.36 kJ/mol |
| SAGGSAGGSAGGSVWIRMPPSKIKDLLDKFGIEPIEIEKMPPGWVYIRITPDALKEAGVFSAGGSAGGSAGG [r7_587_TrROS] | 3.96 ± 0.669 kJ/mol |
| SAGGSAGGSAGKPKKPKLVKVKITLPNGEKKEIITEDVEEVIKEINEEFGAIKIEVEEIKSAGGSAGGSAGG [r17_508_TrMRF] | 11.5 ± 0.711 kJ/mol |
| DMEPEPFTIELPNVKIEVQVYRTPNKLSVNAPIEFPNGKNLTISFKYEPTPDGIKLEISIMIPKKAIEKLLS [r1_153_TrROS] | 13 ± 1.26 kJ/mol |
| SAGGSMTAEELAEELAARHPDATVERSPSGVVTFRLPATGLTVTVSSGAGELRITVEDPTVPRRTLESAGGS [r16_478_JUSTAS] | -1.3 ± 1.26 kJ/mol |
| SAGGKIKIMDIEIERHGGYYKIEIWIQVDTPDDIEDLLKAGVPNVEVERRRNPNGRLYVQAEFYIPAGSAGG [r13_506_TrROS] | 13.1 ± 1.09 kJ/mol |
| SAGGSAGGSAGSSILSVVEEDPETGLRVVLSPVSDVPVRIVTKRIPEKEEIKVLEVERLPSAGGSAGGSAGG [r11_1066_JUSTAS] | -3.12 ± 1.8 kJ/mol |
| SAGSITLVFKTPEELEEALKKLAEELGLSEEEVEALKKELEEKFTITYDEETGYVTITLKPELSEEELKSAG [r5_717_TrROS_Hall] | 14.4 ± 1 kJ/mol |
| SAGGSAGGSAGGPPLKVTEVETHKHPNGHRYVTMTLRPPNGGPVTIMFDPNNGKIQIMISAGGSAGGSAGGS [r10_1218_TrROS] | 12.3 ± 1 kJ/mol |
| SAGGYVTSPMSPEIEAKAKEAGKTIDEAKELVIPVNDGGKFRTVKVTFYPETGTVAFYYEDTGEWSNLLSAG [r5_545_JUSTAS] | 4 ± 0.92 kJ/mol |
| SAGMVIRDPGDGKYIYISPGSGEIEIFNDGKEKKIPFPPGEEMEIEIDPDDGTITITFPNNGRELEIPLSAG [r5_858_TrROS] | 2.92 ± 0.669 kJ/mol |
| SAGGSAGGSDVTVTEYDVTLTVDVTFTAPDANGNPVTTTTPVTIPLKVTVFDFGTARLVVVEGSAGGSAGGS [r20_58_TrMRF] | 14.9 ± 0.243 kJ/mol |

| Sequence | folding stability dG unfold |
| --- | --- |
| SAGSATVTYDPDTNTVTVTLEGPDTTFTISFPNGEKLEVKATVKPLPDGSYKVLLEVYYPDGSKETFELSAG [r14_675_TrMRF] | > 25.1 kJ/mol |
| SAGNVVETEEKPVESPLPRKATLTTLTSPTPGVTFRVFTSPENVTTVEVETDGRTETLEPAEAEALLASSAG [r5_157_JUSTAS] | < -4.18 kJ/mol |
| SNKKWRTIELDFWFRTPEQAREWANNLARRLPPDNIDSISVEVEPFPVRKNGEPVGPVYRFKLTIMVRPESA [r9_605_TrROS] | 10.9 ± 0.381 kJ/mol |
| SAGGSAGGKAEKITLEIPNTGKKVEIIKPENKAIITVYDKNGKPIKTIVVPPNFPGIEDAVKADSAGGSAGG [r6_424_TrMRF] | 1.82 ± 0.502 kJ/mol |
| SAGGSAGGSAGGPFPFKIDSVEWETTDNKRYYEIKLEFPNGNPVTIHMPPNNPDDVKDAISAGGSAGGSAGG [r7_365_TrROS] | 0.603 ± 0.837 kJ/mol |
| SAGGSAGGSAGIVIKAKSPDEAVEALKKLFEKTGKADINIKPVKVLPDGNVLVEAGIDNKSAGGSAGGSAGG [r17_430_TrMRF] | -2.88 ± 1.42 kJ/mol |
| SMVYVFEVPEGDPEKAEELIRAKLEEEFGYKVESVATPGGGGARVVLVVDPVEDKAYAEVIPFAPDGSPASA [r9_173_TrMRF] | 2.58 ± 0.669 kJ/mol |
| SAGGSAGGSAGGMLTIVEVLSKDPEKPVYTVKVKFPDGSEKTLEVPPELLSNPEKEIVLESAGGSAGGSAGG [r7_117_JUSTAS] | 6.16 ± 0.502 kJ/mol |
| SAGAGKTPDGKEYIIPFTFKNENGETTPEEIEEKIKEFTAKHPEVKIKEIKAIKEGDSVKVLVVVEKPASAG [r5_688_TrMRF] | 11.5 ± 1.17 kJ/mol |
| SAGGSAGGSKKKKIEIIIVMSKEEAEKIAEELKKKYNIKEIKIKVIPLKKNSPKVKELLKKLKSAGGSAGGS [r12_649_TrROS_Hall] | 6.78 ± 1.55 kJ/mol |
| SAGGSSPPGVKVEVTVEVTYIPSKGGYKLTFYRPGGEKVDTKELEKDKLEEAKEELKAKGFDVVKIKKSAGG [r13_765_JUSTAS] | 1.45 ± 0.879 kJ/mol |
| SAGGEVELKIKIEIRVELNEDGELKVEIKIEIELRPKPEPELTEEERLAEELRKKYPGLSKEELEALLSAGG [r13_136_TrROS_Hall] | 9.7 ± 1.13 kJ/mol |
| SAGGSAGGSAGGSKDERTLTLRLRVTTPIYGTDADGNPLEPIEVTKEYELTVTVPADLLSAGGSAGGSAGGS [r4_425_TrMRF] | 8.8 ± 0.669 kJ/mol |
| SKKIIIKITITDPKNKKKIKITEIIFDKKTKKIIIKIEVENVKNKEKLKSKEDVLEAIKKLLEKLGFKPISA [r9_258_TrROS_Hall] | 9.4 ± 1.97 kJ/mol |
| SAGGKVYEFEIEVELLDPETGKPKKIKLKVPVFVDPKTGKVTKKVEAEPEPNVPKEEAEKIAKEIIEAESAG [r14_152_TrMRF] | 5.71 ± 1.3 kJ/mol |
| SAVIPLEELARKVAEELGLEPVEVLEVIPEEGVVVMRFEGAVIVVKVDPETGEAEVEIVVFDPETGKPVSAG [r14_270_TrMRF] | 13.2 ± 0.356 kJ/mol |
| SMTLTIDLDPSVPYLVRIHFVNEDGEPYEADALTTRTPDGTAFVDIALPDDSIPPGADIKILSVEVIPLDSA [r9_359_TrMRF] | 8.19 ± 0.213 kJ/mol |
| SAGGKVKIIVFNKKTGEKIEIDLSKLKPGDIIKLPNGYYKIIDKKTKKIKVIKAKSIEELKKAIKKLSSAGG [r13_962_TrROS_Hall] | 8.4 ± 1.38 kJ/mol |
| SAGGDKKWTAEFDVRKRDDTVEVTLTFTDPNGNETTETYTLTDDELAKLLAELPPEFKNVTRNEVLESAGGS [r16_298_JUSTAS] | 7.72 ± 0.669 kJ/mol |
| SAGMTVEELKAQPKNATVTSVSRDPSTGLYTVTIERPDSNGKWVTHTLTLTGPEAVAAAVAAGLPSLAASAG [r5_905_JUSTAS] | 9.03 ± 0.364 kJ/mol |
| SAGGSAGGMYTKTYNVPPDWKVTATATAPGGATVTDSSAPNGNFTLTFPASLADATTFTVTVTPSAGGSAGG [r6_237_JUSTAS] | 1.19 ± 0.586 kJ/mol |
